Reference: patent US20210032364A1 (NOMOCAN PHARMACEUTICALS, published 2021)

Columns and labels:
NMC-P1 peptide = target: T1, NMC-P1 peptide (human); test: peptide-ELISA, plate-bound peptide
T1 construct: Peptide corresponding to amino acids 1-15 of HDM2
T1 peptide: MCNTNMSVPTDGAVT
Procedure: (§1) Peptide-ELISA Methodology: 5 μg/ml of NMC-P1, NMC-P2 or NMC-P3 peptide antigen was dried onto a 96-well ELISA plate overnight. Plates were then blocked with 5% BSA in 1× phosphate-buffered saline (PBS) (100 μl/well) for 2 hours at room temperature. Microplate wells were then washed 5 times with 300 μl of ice cold lx PBS. […] After 2 hours, wells were washed 5 times with 300 μl ice-cold PBS/well and 100 μl secondary antibody (HRP-labeled Goat anti-Mouse F(ab′)2 H&L cross-adsorbed secondary antibody (HRP-GaM F(ab′)2), ThermoFisher, Cat. No. A24524) diluted 1:2500 to 1:5000 in PBS-1% BSA solution were added and the incubation continued at room temperature. After 1 hour, the wells were washed again 5 times with 200 μl of ice-cold PBS and 50 μL of the TMB Substrate Solution (1-StepTM Ultra TMB-ELISA, ThermoFisher, Cat. No. 34028) were added to each well and color was allowed to develop for 30 minutes at room temperature. The reaction was stopped by addition of 50 μL of stop solution (ThermoFisher, Cat. No. SSO4) to each well and absorbance of each well was read immediately for optical density (OD) at 450 nm.

NMC-P2 peptide [1] = target: T2, NMC-P2 peptide (human); test: peptide-ELISA, plate-bound peptide
T2 construct: Peptide corresponding to amino acids 15-25 of HDM2
T2 peptide: TTSQIPASEQE
Procedure: as §1

NMC-P3 peptide [2] = target: T3, NMC-P3 peptide (human); test: competition peptide-ELISA, soluble peptide pre-incubated with the antibody
T3 peptide: CPVCRQPIQMIVLTYFP
Procedure: as §1

NMC-P3 peptide [3] = target: T3, NMC-P3 peptide; test: peptide-ELISA, plate-bound peptide
Procedure: as §1

NMC-P2 peptide [4] = target: T2, NMC-P2 peptide; test: peptide competition in cell-ELISA on intact MIA PaCa-2 cells
[5] = target: T4, recombinant HDM2 protein (GST tagged, Abcam, Cat. No. ab188727) (human, UniProt Q00987 1-491); test: immunoblot
T4 construct: Bought protein, called full-length, about 83 kD with the tag; also called recombinant full-length HDM2 protein; recombinant HDM2-GST protein; not shown: GST tag at the N-terminus
Procedure: Western Blot: As for immunoblots, 1 μg/well of recombinant HDM2 protein (GST tagged, Abcam, Cat. No. ab188727) was separated on 8-16% sodium dodecyl sulfate (SDS) polyacrylamide gel and proteins were then transferred to polyvinylidene difluoride (PVDF) membrane. […] The membrane was then washed×3 times (10 minutes each) and incubated for 1 hour with corresponding HRP-conjugated secondary antibody (Goat anti-Mouse IgG (H&L), F(ab′)2 Frag Cross-adsorbed HRP (HRP-GaM F(ab′)2), ThermoFisher, Cat. No. A24524) diluted 1:5000 in 1% BSA-PBS. The membrane was then washed×3 times and incubated with Pierce ECL Plus Western Blotting Substrate (ThermoFisher, Cat. No. #32132) for 10 min before developing on a LICOR Scanner.

T4 sequence (Q00987 whole entry): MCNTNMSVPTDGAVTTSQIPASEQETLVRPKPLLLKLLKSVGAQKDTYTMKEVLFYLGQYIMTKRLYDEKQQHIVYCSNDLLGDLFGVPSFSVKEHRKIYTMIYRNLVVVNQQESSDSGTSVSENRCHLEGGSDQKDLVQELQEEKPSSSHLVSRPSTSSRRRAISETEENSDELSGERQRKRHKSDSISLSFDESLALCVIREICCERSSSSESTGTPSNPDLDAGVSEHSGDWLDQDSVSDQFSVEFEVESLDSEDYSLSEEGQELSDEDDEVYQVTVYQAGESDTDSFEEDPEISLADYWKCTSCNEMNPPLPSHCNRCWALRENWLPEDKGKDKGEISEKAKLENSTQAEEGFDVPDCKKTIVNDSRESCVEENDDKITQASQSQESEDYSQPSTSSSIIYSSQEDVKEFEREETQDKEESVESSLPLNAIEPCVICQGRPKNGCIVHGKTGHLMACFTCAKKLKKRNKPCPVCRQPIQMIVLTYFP

Binder | binding result (NMC-P1 peptide) | binding result (NMC-P2 peptide [1]) | binding result (NMC-P3 peptide [2]) | binding result (NMC-P3 peptide [3]) | binding result (NMC-P2 peptide [4]) | binding result [5]
monoclonal antibody NMC-103 (antibody, IgG1, V domains shown) VH: EVQLQESGGGLVQPGGSLRLSCTTSGFTFTHYYMSWVRQPPGKALEWLGFIRNKAKGYTAEYSASVKGRFTISRDNSQSILYLQMNTLRPEDSATYYCARDIGDNWGQGTLVTVSS VL: DIVMTQAAFSNPVTLGTSASISCRSSKNLLHSNGITYLYWYLQRPGQSPQLLISRVSNLASGVPNRFSGSESGTDFTLRISRVEAEDVGVYFCAQLLELPYTFGGGTKLEIK | binds | no binding | no binding (tested: 10 µl/ml) | – | – | –
monoclonal antibody NMC-303 (antibody, V domains shown) VH: QVQLQQPGAELVKPGASVKLSCKASGYTFTSYYMYWVKQRPGQGLEWIGGINPRNGGTNFNEKFKNKATLTADKSSTTAYMQLSSLTSEDSAVYYCTRSGYYAMDYWGQGTSVTVSS VL: DIQMTQTTSSLSASLGDRVTISCRASQDISNFLNWYQQKPDGTVKLLIYYTSRLHSGVPSRFSGSGSGTDYSLTISNLEQEDIATYFCQQGNTLPRTFGGGTKLEIK | – | – | – | binds | no binding | binds
monoclonal antibody NMC-204 (antibody, IgG3, V domains shown) VH: EVQLQESGSVLVRPGASVKLSCKASGDTLSGSWMHWAMQRPGQGLEWIGEIHLNRGTTNYNEKFKGKATVTVDTSSSTAYVDLSSLTSEDSAVYYCARSPGFAYWGQGTLVTVSA VL: GIVMTQAAPSVPVTPGESVSISCRSSKSLLHSNGNSYLYWFLQRPGQSPQLLIYRMSNLASGVPDRFSGSGSGTAFTLRITRVEAEDVGVYYCMQHLEYPFTFGSGTKLEIK | no binding | binds | – | no binding | – | –
